Assay: yeast display, Sf9 membrane polyspecificity reagent, FACS + sequencing; frameworks hold sequencing errors
Method in brief: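 Galactose-induced (36–48 hours) yeast carrying a synthetic nanobody display library were exposed to 10% biotinylated, detergent-solubilized Sf9 membrane reagent at 4 °C for 1 hour. FACS followed streptavidin microbead enrichment, using low and high (top ~1%) gates for expression (anti-HA) and reagent binding (streptavidin). Colony PCR, MiSeq 2 × 250 sequencing and CDR-length filtering followed. Labels for polyreactivity reflect the gate of origin.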

In the case of “QVQLVESGGGLVQAGGSLRLSCAASGSIFASYAMGWYRQAPGKERELVATITQSGGRTYYADSVKGRFTISRDNAKNTVYLQMNSLKPEDTAVYYCARRYWGGGYRMGYWGQGTQVTVSS”, the “polyreactivity (PSR sort gate)” value is reported as “high polyreactivity”.

In the case of “QVQLVESGGGLVQAGGSLRLSCAASGSIFASYVMGWYRQAPGKERELVAAITSRGTSTYYADSVKGRFTISRDNAKNTVYLQMNSLKPEDTAVYYCAARLYGSAPQHEYWGQGTQVTVSS”, the “polyreactivity (PSR sort gate)” value is reported as “low polyreactivity”.

For “QVQLVESGGGLVQAGGSLRLSCAASGSIFAVNAMGWYRPAPGKERELVAAITSGGITYYADSVKGRFTISRDNAKNTVYLQMNSLKPEDTAVYYCATVFSVQGWYFGMNYWGQGTQVTVSS”, the “polyreactivity (PSR sort gate)” value was “low polyreactivity”.

With “QVQLVESGGGLVQAGGSLRLSCAASGSIFAVNAMGWYRQAPGKERELVAAIDWSDGITYYADSVKGRFTISRDNAKNTVYLQMNSLKPEDTAVYYCAADATAYGWYVEQFSFYDNDYWGQGTQVTVSS” the “polyreactivity (PSR sort gate)” value was “high polyreactivity”.

In the case of “QVQLVESGGGLVQAGGSLRLSCAASGSIFAVYAMGWYRQAPGKERELVAASSTDYAESVKGRFTISRDNAKNTVFLQLNRLKPEDTAVYYCAKVGFGIPGGFYYWGQGTQVTVSS”, the “polyreactivity (PSR sort gate)” value is reported as “low polyreactivity”.

In the case of “QVQLVESGGGLVQAGGSLRLSCAASGSIFAVYAMGWYRQAPGKERELVAVITRSGGSTYYADSVKGRFTISRDNAKNTVYLQMISLKPEDTAVYYCAARTGYGYTRYEYWGQGTQVTVSS”, the “polyreactivity (PSR sort gate)” value is reported as “high polyreactivity”.

For “QVQLVESGGGLVQAGGSLRLSCAASGSIFAVYVMGWYRQAPGKDRELVAAIRRGGTTTYADSVKGRFTISRDNAKTTVYLQMNSLKPEDTAVYYCAADSYARYLYSYYSPYDYWGQGTQVTVSS”, the “polyreactivity (PSR sort gate)” value was “low polyreactivity”.

With “QVQLVESGGGLVQAGGSLRLSCAASGSIFAWYALGWYRQAPGKERELVADITQSGGSTYYADSVKGRFTISRDNAKNTVYLQMNSLKPEDTAVYYCVDYWYNYLQSGWEDDYWGQGTQVTVSS” the “polyreactivity (PSR sort gate)” value was “low polyreactivity”.

With “QVQLVESGGGLVQAGGSLRLSCAASGSIFAYAMGWYRKAPGKEMELVAAISGGSTYYADSVKGRFTISRDNAKNTVYLQMNSVKPEDTAVYYCAADLDDERYYWGQGTQVTVSS” the “polyreactivity (PSR sort gate)” value was “low polyreactivity”.

In the case of “QVQLVESGGGLVQAGGSLRLSCAASGSIFAYAMGWYRQAHGKERELVAAISGGSTYYADSVKGRFTISRENAKNTVYLQMNSLKPEETAVYYCAADLDDERYYWGQGTQVTVSS”, the “polyreactivity (PSR sort gate)” value is reported as “low polyreactivity”.

In the case of “QVQLVESGGGLVQAGGSLRLSCAASGSIFAYNAMGWYRQAPGKEREFVASISSNGDSTFYADSVKGRFTISRDNAKNTVYLQMNSLKPEDTAVYYCAADVIAWDGYLWQRYDYWGQGTQVTVSS”, the “polyreactivity (PSR sort gate)” value is reported as “low polyreactivity”.

With “QVQLVESGGGLVQAGGSLRLSCAASGSIFAYNAMGWYRQAPGKERELVAANSYSGASTYYADSVKGRFTISRDNAKNTVYLQMNSLKPEDTEVYYCAATSRRRGTKGYWQVWPRFDYWGQGTQVTVSS” the “polyreactivity (PSR sort gate)” value was “high polyreactivity”.

For “QVQLVESGGGLVQAGGSLRLSCAASGSIFAYYAIGWYRQAPGKEREFVAAISISGGSTNYADSVKRRFTISRDNAKNTVYLQMNSLKPEDTAVYSCAATSRWSSFGFYGQYNFWGQGTQVTVSS”, the “polyreactivity (PSR sort gate)” value was “high polyreactivity”.

For “QVQLVESGGGLVQAGGSLRLSCAASGSIFAYYAMGWYREAPGKERELVADITSSGGITYSADSVKGRFTISRDNAKNTVYLLMNSLKPEDTAGYYCNADSWAIGGGSYPYDYWGQGTKVTVSS”, the “polyreactivity (PSR sort gate)” value was “low polyreactivity”.

With “QVQLVESGGGLVQAGGSLRLSCAASGSIFAYYAMGWYRQAPGKERELVAAISRRGGSTYYADSVKGRFTISRDNAKNTVYLQMNSLKPEDTAVYYCAADGGGTTSLEYGNDYWGQGTQVTVSS” the “polyreactivity (PSR sort gate)” value was “high polyreactivity”.

In the case of “QVQLVESGGGLVQAGGSLRLSCAASGSIFAYYAMGWYRQAPGKERELVAAITSGDSTYYADSVKGRFTISRDNAKNTVYLQMNSLKPEDSAVYYCAADVSWRSNWYDYWGQGTQVTVSS”, the “polyreactivity (PSR sort gate)” value is reported as “low polyreactivity”.

In the case of “QVQLVESGGGLVQAGGSLRLSCAASGSIFAYYVMGWYRKAPGKERELVAAITSVGSTNYADSVKGRFTISRDNAKNTVYLQMNCLKPEDTAVYSCAAVQYQASYYYWGQGTQVTLSS”, the “polyreactivity (PSR sort gate)” value is reported as “low polyreactivity”.

In the case of “QVQLVESGGGLVQAGGSLRLSCAASGSIFDANAMGWYRQAPGKERELVATIRIGGSTNYADSVKGRFRISRDNAKNTVYLQMYSLKPEDTAGYYCAASRQFRSRRFYYWGQGTQVTVSS”, the “polyreactivity (PSR sort gate)” value is reported as “high polyreactivity”.

With “QVQLVESGGGLVQAGGSLRLSCAASGSIFDDNAMGWYRQAPGKERELVAAISANDGSTYYADSAKGRFTISRDNAKNTVYLQMNTLKPEDTAVYYCAAERYLSFDRYLYEYYYWGQGTQVTVSS” the “polyreactivity (PSR sort gate)” value was “low polyreactivity”.

With “QVQLVESGGGLVQAGGSLRLSCAASGSIFDDNAMGWYRQAPGKERELVATINYGGGRTSYADSVKGRSTISRDNAKNTVYLQMNSLKPEDTAVYYCAADPRQKEDYWGQGTQVTVSS” the “polyreactivity (PSR sort gate)” value was “low polyreactivity”.

With “QVQLVESGGGLVQAGGSLRLSCAASGSIFDDYAMGGYRQAHGKERELVAAISSSGTSTYYADSVKGRFTISRDNAKNTVYLQMNCLKPEDTAVYYCAARSAILKSAYLMDYWGQGTQVTVSS” the “polyreactivity (PSR sort gate)” value was “low polyreactivity”.

For “QVQLVESGGGLVQAGGSLRLSCAASGSIFDDYAMGWYRQAPGKERELVAAISSSGTSTYYADSVKGRFTISRDNAKNTVYLQMNSLKPEDTAVYYCAKYAGVYEYDYWGQGTQVTVSS”, the “polyreactivity (PSR sort gate)” value was “low polyreactivity”.

For “QVQLVESGGGLVQAGGSLRLSCAASGSIFDDYAMGWYRQSPGQERELVAAISWSGGSTYYADSVKGRFTISRDNAKNTDYLQMNSLKPDDTAVYYCAGYDYDYLYGEYYWGQGTQVTVSS”, the “polyreactivity (PSR sort gate)” value was “low polyreactivity”.

For “QVQLVESGGGLVQAGGSLRLSCAASGSIFDFNAMGWYRQVPGKERELVAAITSGGSTNYADSVKGRFTISRDNAKNTVYLQMNSLKPEDTAVYYCAARPARGASQGGYVRPWWYDYWGQGTQVTVSS”, the “polyreactivity (PSR sort gate)” value was “low polyreactivity”.

With “QVQLVESGGGLVQAGGSLRLSCAASGSIFDFYAMGWYRQAPGKERELVAAITWSGDTTYYADSVKGRFTISRDNAKNTVYLQMNCLKPEDTAVYYCAAEGWYWWYGRDYYWGQGTQVTVSS” the “polyreactivity (PSR sort gate)” value was “high polyreactivity”.

For “QVQLVESGGGLVQAGGSLRLSCAASGSIFDFYAMGWYRQAPGKERELVADISSSDGSTSYADSVKGRFTISRDNAKNTVYLQLNSLKPEDTAVYYCAASQLFGWFPYDYWGQGTQVTVSS”, the “polyreactivity (PSR sort gate)” value was “high polyreactivity”.

In the case of “QVQLVESGGGLVQAGGSLRLSCAASGSIFDFYAMGWYRQAPGKERESVAAISWSGGSTYADSVKGRFTISRDNAKNTVYLQMNSLKPEDTAVYYCAARWGTYWGVLGGDPDIDYDYWGQGTQVTVSS”, the “polyreactivity (PSR sort gate)” value is reported as “low polyreactivity”.

In the case of “QVQLVESGGGLVQAGGSLRLSCAASGSIFDFYDMGWYRPAPGKERELVAAISSGGGSTYYADSVKGRFTISRDNAKNTVYLQMNSLKPEDTAVYYCAADLKGNYYLGIARYVLYYWGQGTQVTVSS”, the “polyreactivity (PSR sort gate)” value is reported as “low polyreactivity”.

With “QVQLVESGGGLVQAGGSLRLSCAASGSIFDGNAMGWYRQAPGKERDLVAANTKNDGTTYYADSVKGRFTISRDNAKNTVYLQMNSLKQEDTAVYYCAAESVYQVYTYVSSGDYWGQGTQVTVSS” the “polyreactivity (PSR sort gate)” value was “low polyreactivity”.

In the case of “QVQLVESGGGLVQAGGSLRLSCAASGSIFDGNAMVSYRQAPGKDRELVADISRGGSTYYADSVKGPFTISRDNAKNTVYLQMNSLTPEDTAVYYCNVEFFFWPYEYGYWGQGTQVTVSS”, the “polyreactivity (PSR sort gate)” value is reported as “low polyreactivity”.

For “QVQLVESGGGLVQAGGSLRLSCAASGSIFDGNDMGWYRQAPGKEREKVAAITIGDASRFYADSVKGRFTISRDNAKNTVYFQMNRLKPEDTAVYYCAADRPGLEDDPIYDYWGQGTQVTVSS”, the “polyreactivity (PSR sort gate)” value was “low polyreactivity”.

From the nanobody polyreactivity screen of Harvey et al. (2022)
